In the Human Domainome abundance scans (Beltran et al. 2025):
± gives the uncertainty stated by the source.

B1: Cullin-9, residues 2234 to 2275; numbered along this chain, Q8IWT3 (parent)
chain: KRCPSCQAPIEKNEGCLHMTCAKCNHGFCWRCLKSWKPNHKD

Variants of: B1
Experiment: abundance fitness (aPCA) (normalised: wild type 0, dead -1); higher = more abundant; growth selection in yeast, the domain comes from the species named
Conditions: Homo sapiens

KRCPSCQAPIEKNEGCLYMTCAKCNHGFCWRCLKSWKPNHKD [H18Y] and KRCPSCQAPIEKNEGCLWMTCAKCNHGFCWRCLKSWKPNHKD [H18W] are within error of each other in abundance fitness: -0.503 ± 0.16 for the first, -0.329 ± 0.09 for the second.

KRCPSCQAPIEKNEGCLGMTCAKCNHGFCWRCLKSWKPNHKD [H18G] and KRCPSCQAPIEKNEGCLAMTCAKCNHGFCWRCLKSWKPNHKD [H18A] are within error of each other in abundance fitness: -0.216 ± 0.081 for the first, -0.142 ± 0.083 for the second.

Compared with KRCPSCQAPIEKNEGCLHMTRAKCNHGFCWRCLKSWKPNHKD [C21R], KRCPSCQAPIEKNEGCLHMTKAKCNHGFCWRCLKSWKPNHKD [C21K] is higher in abundance fitness: -0.866 ± 0.094 for the first, -0.489 ± 0.12 for the second.

KRCPSCQAPIEKNEGCLHMTDAKCNHGFCWRCLKSWKPNHKD [C21D] and KRCPSCQAPIEKNEGCLHMTNAKCNHGFCWRCLKSWKPNHKD [C21N] are within error of each other in abundance fitness: -0.239 ± 0.13 for the first, -0.462 ± 0.21 for the second.

KRCPSCQAPIEKNEGCLHMTHAKCNHGFCWRCLKSWKPNHKD [C21H] and KRCPSCQAPIEKNEGCLHMTWAKCNHGFCWRCLKSWKPNHKD [C21W] are within error of each other in abundance fitness: -1.16 ± 0.29 for the first, -0.823 ± 0.12 for the second.

KRCPSCQAPIEKNEGCLHMTPAKCNHGFCWRCLKSWKPNHKD [C21P] and KRCPSCQAPIEKNEGCLHMTGAKCNHGFCWRCLKSWKPNHKD [C21G] are within error of each other in abundance fitness: -0.612 ± 0.12 for the first, -0.482 ± 0.078 for the second.

KRCPSCQAPIEKNEGCLHMTVAKCNHGFCWRCLKSWKPNHKD [C21V] and KRCPSCQAPIEKNEGCLHMTYAKCNHGFCWRCLKSWKPNHKD [C21Y] are within error of each other in abundance fitness: -0.677 ± 0.095 for the first, -0.465 ± 0.2 for the second.

Compared with KRCPSCQAPIEKNEGCLHMTQAKCNHGFCWRCLKSWKPNHKD [C21Q], KRCPSCQAPIEKNEGCLHMTEAKCNHGFCWRCLKSWKPNHKD [C21E] is higher in abundance fitness: -0.537 ± 0.12 for the first, -0.137 ± 0.096 for the second.

KRCPSCQAPIEKNEGCLHMTFAKCNHGFCWRCLKSWKPNHKD [C21F] and KRCPSCQAPIEKNEGCLHMTIAKCNHGFCWRCLKSWKPNHKD [C21I] are within error of each other in abundance fitness: -0.917 ± 0.33 for the first, -0.968 ± 0.25 for the second.

Going from KRCPSCQAPIEKNEGCLHMTMAKCNHGFCWRCLKSWKPNHKD [C21M] to KRCPSCQAPIEKNEGCLHMCCAKCNHGFCWRCLKSWKPNHKD [T20C], the abundance fitness rises from -0.962 ± 0.16 to -0.447 ± 0.13.

First: KRCPSCQAPIEKNEGCLHMICAKCNHGFCWRCLKSWKPNHKD [T20I]
Second: KRCPSCQAPIEKNEGCLHMFCAKCNHGFCWRCLKSWKPNHKD [T20F]
The abundance fitness of the first is higher: 0.196 ± 0.16 for the first, -0.462 ± 0.24 for the second.

Compared with KRCPSCQAPIEKNEGCLHMSCAKCNHGFCWRCLKSWKPNHKD [T20S], KRCPSCQAPIEKNEGCLHMYCAKCNHGFCWRCLKSWKPNHKD [T20Y] is higher in abundance fitness: -0.304 ± 0.097 for the first, 0.316 ± 0.2 for the second.

KRCPSCQAPIEKNEGCLHMQCAKCNHGFCWRCLKSWKPNHKD [T20Q] and KRCPSCQAPIEKNEGCLHMRCAKCNHGFCWRCLKSWKPNHKD [T20R] are within error of each other in abundance fitness: -0.029 ± 0.1 for the first, -0.143 ± 0.077 for the second.

KRCPSCQAPIEKNEGCLHMACAKCNHGFCWRCLKSWKPNHKD [T20A] and KRCPSCQAPIEKNEGCLHMHCAKCNHGFCWRCLKSWKPNHKD [T20H] are within error of each other in abundance fitness: -0.218 ± 0.085 for the first, -0.154 ± 0.15 for the second.

KRCPSCQAPIEKNEGCLHMMCAKCNHGFCWRCLKSWKPNHKD [T20M] and KRCPSCQAPIEKNEGCLHMDCAKCNHGFCWRCLKSWKPNHKD [T20D] are within error of each other in abundance fitness: -0.035 ± 0.12 for the first, -0.166 ± 0.14 for the second.

KRCPSCQAPIEKNEGCLHMWCAKCNHGFCWRCLKSWKPNHKD [T20W] and KRCPSCQAPIEKNEGCLHMGCAKCNHGFCWRCLKSWKPNHKD [T20G] are within error of each other in abundance fitness: -0.172 ± 0.093 for the first, -0.288 ± 0.083 for the second.

KRCPSCQAPIEKNEGCLHMLCAKCNHGFCWRCLKSWKPNHKD [T20L] and KRCPSCQAPIEKNEGCLHMPCAKCNHGFCWRCLKSWKPNHKD [T20P] are within error of each other in abundance fitness: -0.099 ± 0.097 for the first, -0.103 ± 0.1 for the second.

KRCPSCQAPIEKNEGCLHMECAKCNHGFCWRCLKSWKPNHKD [T20E] and KRCPSCQAPIEKNEGCLHNTCAKCNHGFCWRCLKSWKPNHKD [M19N] are within error of each other in abundance fitness: -0.306 ± 0.11 for the first, -0.161 ± 0.18 for the second.

KRCPSCQAPIEKNEGCLHETCAKCNHGFCWRCLKSWKPNHKD [M19E] and KRCPSCQAPIEKNEGCLHRTCAKCNHGFCWRCLKSWKPNHKD [M19R] are within error of each other in abundance fitness: -0.186 ± 0.1 for the first, -0.28 ± 0.08 for the second.

KRCPSCQAPIEKNEGCLHATCAKCNHGFCWRCLKSWKPNHKD [M19A] and KRCPSCQAPIEKNEGCLHSTCAKCNHGFCWRCLKSWKPNHKD [M19S] are within error of each other in abundance fitness: -0.048 ± 0.095 for the first, 0.016 ± 0.097 for the second.

KRCPSCQAPIEKNEGCLHTTCAKCNHGFCWRCLKSWKPNHKD [M19T] and KRCPSCQAPIEKNEGCLHCTCAKCNHGFCWRCLKSWKPNHKD [M19C] are within error of each other in abundance fitness: 0.182 ± 0.11 for the first, -0.012 ± 0.13 for the second.

KRCPSCQAPIEKNEGCLHWTCAKCNHGFCWRCLKSWKPNHKD [M19W] and KRCPSCQAPIEKNEGCLHQTCAKCNHGFCWRCLKSWKPNHKD [M19Q] are within error of each other in abundance fitness: -0.223 ± 0.1 for the first, -0.019 ± 0.12 for the second.

KRCPSCQAPIEKNEGCLHDTCAKCNHGFCWRCLKSWKPNHKD [M19D] and KRCPSCQAPIEKNEGCLHITCAKCNHGFCWRCLKSWKPNHKD [M19I] are within error of each other in abundance fitness: 0.046 ± 0.13 for the first, -0.008 ± 0.19 for the second.

Compared with KRCPSCQAPIEKNEGCLHPTCAKCNHGFCWRCLKSWKPNHKD [M19P], KRCPSCQAPIEKNEGCLHHTCAKCNHGFCWRCLKSWKPNHKD [M19H] is lower in abundance fitness: 0.012 ± 0.1 for the first, -0.405 ± 0.21 for the second.

KRCPSCQAPIEKNEGCLHGTCAKCNHGFCWRCLKSWKPNHKD [M19G] and KRCPSCQAPIEKNEGCLHFTCAKCNHGFCWRCLKSWKPNHKD [M19F] are within error of each other in abundance fitness: -0.22 ± 0.074 for the first, -0.48 ± 0.22 for the second.

Going from KRCPSCQAPIEKNEGCLHKTCAKCNHGFCWRCLKSWKPNHKD [M19K] to KRCPSCQAPIEKNEGCLHVTCAKCNHGFCWRCLKSWKPNHKD [M19V], the abundance fitness rises from 0.003 ± 0.13 to 0.264 ± 0.076.

Compared with KRCPSCQAPIEKNEGCLHLTCAKCNHGFCWRCLKSWKPNHKD [M19L], KRCPSCQAPIEKNEGCLHYTCAKCNHGFCWRCLKSWKPNHKD [M19Y] is lower in abundance fitness: -0.034 ± 0.092 for the first, -0.803 ± 0.46 for the second.

KRCPSCQAPIEKNEGCTHMTCAKCNHGFCWRCLKSWKPNHKD [L17T] and KRCPSCQAPIEKNEGCSHMTCAKCNHGFCWRCLKSWKPNHKD [L17S] are within error of each other in abundance fitness: -0.236 ± 0.12 for the first, -0.186 ± 0.12 for the second.

Going from KRCPSCQAPIEKNEGCWHMTCAKCNHGFCWRCLKSWKPNHKD [L17W] to KRCPSCQAPIEKNEGCRHMTCAKCNHGFCWRCLKSWKPNHKD [L17R], the abundance fitness falls from -0.169 ± 0.099 to -0.614 ± 0.085.

Going from KRCPSCQAPIEKNEGCPHMTCAKCNHGFCWRCLKSWKPNHKD [L17P] to KRCPSCQAPIEKNEGCYHMTCAKCNHGFCWRCLKSWKPNHKD [L17Y], the abundance fitness rises from -0.047 ± 0.12 to 0.383 ± 0.29.
